Test results reported in patent publication US20140178394A1 (INSERM INSTITUT NATIONAL DE LA SANTE ET DE LA RECHERCHE …, published 2014).

B1: reference peptide 517 (MAGE-A10), GLYDGMEHL (peptide)
peptide: GLYDGMEHL
notes: Control peptide from the literature, tested here
B2: reference peptide 520 (GnTV), VLPDVFIRC (peptide)
peptide: VLPDVFIRC
notes: Control peptide from the literature, tested here; also called GnTV peptide
B3: Nectin4 peptide 358 (ALLFCLLVV) (peptide)
peptide: ALLFCLLVV
notes: Synthetic nonapeptide of human nectin4; the range counts on nectin4
B4: Nectin4 peptide 351 (VVVGVIAAL) (peptide)
peptide: VVVGVIAAL
notes: as for B3
B5: Nectin4 peptide 21 (LLASFTGRC) (peptide)
peptide: LLASFTGRC
notes: Synthetic nonapeptide of human nectin4; the range counts on nectin4; also called Pep N° 21
B6: Nectin4 peptide 345 (LVSASVVVV) (peptide)
peptide: LVSASVVVV
notes: as for B3
B7: reference peptide 503 (PR3; Proteinase3), NLSASVATV (peptide)
peptide: NLSASVATV
notes: as for B1
B8: Nectin4 peptide 244 (FLAEASVRG) (peptide)
peptide: FLAEASVRG
notes: as for B3
B9: Nectin4 peptide 238 (HILHVSFLA) (peptide)
peptide: HILHVSFLA
notes: Synthetic nonapeptide of human nectin4; the number is the start position in nectin4 (the range counts on nectin4)
B10: Nectin4 peptide 255 (DQNLWHIGR) (peptide)
peptide: DQNLWHIGR
notes: as for B3
B11: Nectin4 peptide 80 (ALLHSKYGL) (peptide)
peptide: ALLHSKYGL
notes: Synthetic nonapeptide of human nectin4; the range counts on nectin4; also called Pep N° 80
B12: Nectin4 peptide 215 (SMNGQPLTC) (peptide)
peptide: SMNGQPLTC
notes: as for B3
B13: Nectin4 peptide 359 (LLFCLLVVV) (peptide)
peptide: LLFCLLVVV
notes: as for B3
B14: reference peptide 519 (Tyrosinase), YMDGTMSQV (peptide)
peptide: YMDGTMSQV
notes: Control peptide from the literature, tested here; also called tyrosinase peptide
B15: Nectin4 peptide 354 (GVIAALLFC) (peptide)
peptide: GVIAALLFC
notes: as for B3
B16: Nectin4 peptide 357 (AALLFCLLV) (peptide)
peptide: AALLFCLLV
notes: as for B3
B17: Nectin4 peptide 203 (AVTSEFHLV) (peptide)
peptide: AVTSEFHLV
notes: as for B3
B18: Nectin4 peptide 137 (FQARLRLRV) (peptide)
peptide: FQARLRLRV
notes: as for B3
B19: Nectin4 peptide 443 (RSYSTLTTV) (peptide)
peptide: RSYSTLTTV
notes: as for B3
B20: Nectin4 peptide 19 (LLLLASFTG) (peptide)
peptide: LLLLASFTG
notes: as for B3
B21: Nectin4 peptide 266 (AMLKCLSEG) (peptide)
peptide: AMLKCLSEG
notes: as for B3
B22: Nectin4 peptide 35 (GTSDVVTVV) (peptide)
peptide: GTSDVVTVV
notes: as for B3
B23: Nectin4 peptide 355 (VIAALLFCL) (peptide)
peptide: VIAALLFCL
notes: as for B3
B24: reference peptide 515 (MAGE-A3), KVAELVHFL (peptide)
peptide: KVAELVHFL
notes: as for B1
B25: Nectin4 peptide 239 (ILHVSFLAE) (peptide)
peptide: ILHVSFLAE
notes: as for B3
B26: Nectin4 peptide 347 (SASVVVVGV) (peptide)
peptide: SASVVVVGV
notes: as for B3
B27: antigen peptide N4-145 (VLVPPLPSL) (peptide)
peptide: VLVPPLPSL
notes: as for B3

Key:
[1] = target: T1, HLA-A*0201 HLA class I MHC monomer (iTopia Epitope Discovery System, coated on plate) (human); test: overall rank from iTopia EDS and CEM T2 assays on HLA-A*0201
T1 construct: Placeholder peptide stripped; also called HLA-A2; MHC class I monomer

[2] = target: T2, HLA-A*0201 on the CEM.T2 cell line (T2) (human); test: T2 cell dissociation assay with Brefeldin A, flow cytometry
T2 construct: whole, on cells
Method: (§1) After 3 washes, cells were fixed in PBS supplemented with 2% paraformaldehyde and analyzed by FACS (FACScan, BD Bioscience). The percentage of peptide binding was calculated as follows:
(§2) After 3 washes, T2 cells were incubated for 3 h in serum-free RPMI at 37° C. Binding was then measured by FACS and after 4 h incubation. Percentage of Residual Binding (% RB) was calculated as follows:

[3] = target: T1, HLA-A*0201 HLA class I MHC monomer …; test: iTopia EDS multiparametric score (binding, off-rate, affinity)
From the text: (§3) Microtiter 96 well plates containing HLA class I MHC monomer loaded with the human β2-microglobulin and a “placeholder” peptide were used to evaluate peptide binding, affinity, and off-rate.
The iTopia system software was used to include, binding, off-rate (T1/2 value) and affinity (ED50 value) data collected for each peptide, in a multiparametric score called iScore.

[4] = target: T1, HLA-A*0201 HLA class I MHC monomer …; test: iTopia EDS off-rate assay at 37 C; time to 50% complex dissociation
From the text: as §3
(§4) This assay evaluates the dissociation rate of “binder” peptides as a function of time.

[5] = target: T1, HLA-A*0201 HLA class I MHC monomer …; test: iTopia EDS affinity assay; peptide titration, printed as Affinity (ED50)
[6] = target: T1, HLA-A*0201 HLA class I MHC monomer …; test: iTopia EDS peptide binding assay on plate-coated MHC monomer; % of positive control peptide
[7] = target: T2, HLA-A*0201 on the CEM.T2 cell line (T2); test: T2 cell HLA-A*0201 stabilization, 100 µM peptide, flow cytometry; % of HBV positive control
Method: as §1

[8] = target: T2, HLA-A*0201 on the CEM.T2 cell line (T2); test: T2 cell HLA-A*0201 stabilization and dissociation, flow cytometry
Method: as §1, §2

[9] = target: T1, HLA-A*0201 HLA class I MHC monomer …; test: iTopia EDS off-rate assay
Method: as §4
The relative stability of each complex was evaluated for a period of 8 h as described in material and methods. Off-rate stability was determined by measuring the dissociation time of the complex (t1/2).

[10] = target: T1, HLA-A*0201 HLA class I MHC monomer …; test: iTopia EDS affinity assay; peptide titration (ED50)

Binder | RANK F-Score [1] | CEM.T2 % Residual Binding [2] | iScore [3] | T½ Value [4] | EC50 [5] | % Binding [6] | CEM.T2 % Binding [7] | binding score [8] | t1/2 [9] | EC50 [10]
B1 | 8 | – | – | – | – | – | – | – | – | –
B2 | 1 | – | – | – | – | – | – | – | – | –
B3 | – | 26% | 0.71 | 6.1 h | 200 nM | 53% | 26% | – | – | –
B4 | 5 | 50% | 0.784 | 3.4 h | 30 nM | 58% | 82% | > 50 % of positive control | – | –
B5 | 11 | 86% | 0.727 | 6 h | 600 nM | 91% | 44% | – | > 6 h | ~100 nM
B6 | – | 0% | 0.626 | 2.3 h | 60 nM | 51% | 11% | – | – | –
B7 | 9 | – | – | – | – | – | – | – | – | –
B8 | – | 0% | 0.533 | 2.8 h | 700 nM | 78% | 12% | – | – | –
B9 | 7 | 66% | 1.43 | 6.7 h | 60 nM | 87% | 37% | – | – | –
B10 | – | 0% | 0.539 | 5.4 h | 500 nM | 62% | 6% | – | – | –
B11 | 4 | 86% | 0.815 | 7.8 h | 1000 nM | 87% | 53% | > 50 % of positive control | > 6 h | ~100 nM
B12 | – | 0% | 0.689 | 6.8 h | 700 nM | 81% | 21% | – | – | –
B13 | – | 23% | 0.674 | 7.4 h | 500 nM | 67% | 7% | – | – | –
B14 | 3 | – | – | – | – | – | – | – | – | –
B15 | – | 0% | 0.845 | 6.2 h | 90 nM | 61% | 10% | – | – | –
B16 | – | 18% | 0.619 | 3.8 h | 100 nM | 56% | 15% | – | – | –
B17 | – | 0% | 0.533 | 3.5 h | 400 nM | 64% | 48% | – | – | –
B18 | – | 72% | 0.66 | 7.3 h | – | 69% | 30% | – | – | –
B19 | – | 0% | 0.521 | 2.4 h | 300 nM | 68% | 37% | – | – | –
B20 | – | 0% | 0.659 | 2.1 h | 60 nM | 75% | 17% | – | – | –
B21 | – | 39% | 0.667 | 6.8 h | 700 nM | 74% | 31% | – | – | –
B22 | – | 0% | 0.539 | 2.9 h | 300 nM | 63% | 60% | – | – | –
B23 | – | 24% | 0.888 | 5.2 h | 30 nM | 59% | 18% | – | – | –
B24 | 10 | – | – | – | – | – | – | – | – | –
B25 | – | 0% | 0.51 | 2.3 h | 200 nM | 61% | 10% | – | – | –
B26 | – | 0% | 0.708 | 3.7 h | 200 nM | 64% | 40% | – | – | –
B27 | 6 | 54% | 0.783 | 7.4 h | 500 nM | 67% | 76% | > 50 % of positive control | > 6 h | ~100 nM
